Tests used:
Prep1 (pKnox1);Pbx1 [1] = biological target: T1, Prep1 (pKnox1);Pbx1 (mouse?;mouse?, UniProt O70477;P41778 1-344;1-308, |); experiment: EMSA; 15 uL reactions with 5% glycerol, 1 ug poly-dIdC, 1.3 uM ds oligo, 12 ug Meis1/Pbx1 or 7 ug Prep1/Pbx1; 30 min on ice; 5-15% native PAGE, GelRed stain; buffer; conditions: protein: recombinant;recombinant; tags: GST fusion from modified pGEX6p-2rbs; copies: 1;1; blunt
T1 sequence 1: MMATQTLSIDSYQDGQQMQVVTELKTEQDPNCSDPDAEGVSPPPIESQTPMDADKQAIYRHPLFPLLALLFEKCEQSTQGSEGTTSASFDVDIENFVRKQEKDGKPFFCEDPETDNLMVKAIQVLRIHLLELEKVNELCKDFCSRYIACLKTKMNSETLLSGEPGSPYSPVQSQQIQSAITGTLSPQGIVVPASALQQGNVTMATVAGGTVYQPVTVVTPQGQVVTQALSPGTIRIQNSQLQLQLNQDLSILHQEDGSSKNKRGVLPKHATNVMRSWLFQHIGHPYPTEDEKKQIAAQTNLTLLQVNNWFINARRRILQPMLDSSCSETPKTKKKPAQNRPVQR
T1 sequence 2: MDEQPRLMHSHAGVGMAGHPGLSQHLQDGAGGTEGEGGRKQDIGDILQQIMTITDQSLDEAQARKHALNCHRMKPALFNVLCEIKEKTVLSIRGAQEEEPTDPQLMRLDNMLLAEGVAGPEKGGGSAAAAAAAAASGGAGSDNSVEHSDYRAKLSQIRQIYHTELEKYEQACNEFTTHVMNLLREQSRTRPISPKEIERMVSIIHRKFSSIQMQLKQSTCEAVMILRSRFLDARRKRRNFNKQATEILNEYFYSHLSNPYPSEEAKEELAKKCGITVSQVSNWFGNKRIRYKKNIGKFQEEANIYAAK

Meis1;Pbx1 [2] = biological target: T2, Meis1;Pbx1 (mouse?;mouse?, UniProt Q60954;P41778 1-390;1-308, |); experiment: EMSA; needs higher protein:DNA ratio than OCTA; 15 uL reactions with 5% glycerol, 1 ug poly-dIdC, 1.3 uM ds oligo, 12 ug Meis1/Pbx1 or 7 ug Prep1/Pbx1; 30 min on ice; 5-15% native PAGE, GelRed stain; buffer; conditions: protein: recombinant;recombinant; tags: GST fusion from modified pGEX6p-2rbs; copies: 1;1; blunt
T2 sequence 1: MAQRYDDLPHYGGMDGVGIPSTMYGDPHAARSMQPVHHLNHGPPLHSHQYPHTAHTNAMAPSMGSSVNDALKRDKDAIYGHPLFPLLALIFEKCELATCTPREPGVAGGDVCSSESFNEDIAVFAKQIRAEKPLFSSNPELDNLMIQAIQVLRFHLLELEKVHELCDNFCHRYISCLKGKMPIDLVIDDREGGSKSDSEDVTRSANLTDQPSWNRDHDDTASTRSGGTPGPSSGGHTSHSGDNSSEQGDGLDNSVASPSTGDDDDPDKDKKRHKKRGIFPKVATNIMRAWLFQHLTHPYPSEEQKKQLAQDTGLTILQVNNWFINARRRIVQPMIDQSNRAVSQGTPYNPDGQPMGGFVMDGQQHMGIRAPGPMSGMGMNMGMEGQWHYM
T2 sequence 2: T1 sequence 2

Prep1 (pKnox1);Pbx1 [3] = biological target: T1, Prep1 (pKnox1);Pbx1; experiment: EMSA; binds also at low protein:DNA ratio; AP1 oligo taken as the only printed single AP1 oligo; 15 uL reactions with 5% glycerol, 1 ug poly-dIdC, 1.3 uM ds oligo, 12 ug Meis1/Pbx1 or 7 ug Prep1/Pbx1; 30 min on ice; 5-15% native PAGE, GelRed stain; buffer; conditions: protein: recombinant;recombinant; tags: GST fusion from modified pGEX6p-2rbs; copies: 1;1; blunt
c-Fos;c-Jun = c-Fos;c-Jun (;, UniProt P01100;P05412 1-380;1-331, |); experiment: EMSA; 15 uL reactions with 5% glycerol, 1 ug poly-dIdC, 1.3 uM ds oligo, 12 ug Meis1/Pbx1 or 7 ug Prep1/Pbx1; 30 min on ice; 5-15% native PAGE, GelRed stain; buffer; conditions: protein: commercial;commercial; tags: ;; copies: 1;1; blunt
Sequence of c-Fos;c-Jun (P01100 whole entry, chain 1 of 2, the tested form may be a part): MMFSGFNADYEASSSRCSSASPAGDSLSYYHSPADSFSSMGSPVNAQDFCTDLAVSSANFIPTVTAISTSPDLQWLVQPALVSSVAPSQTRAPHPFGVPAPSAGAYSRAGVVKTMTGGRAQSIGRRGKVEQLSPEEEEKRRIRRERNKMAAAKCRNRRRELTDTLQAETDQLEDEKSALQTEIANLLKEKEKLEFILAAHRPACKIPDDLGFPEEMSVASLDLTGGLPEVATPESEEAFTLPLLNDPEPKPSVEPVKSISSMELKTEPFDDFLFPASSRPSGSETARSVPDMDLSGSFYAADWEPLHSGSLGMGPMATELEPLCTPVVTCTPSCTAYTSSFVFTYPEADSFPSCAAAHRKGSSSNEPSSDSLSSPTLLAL
Sequence of c-Fos;c-Jun (P05412 whole entry, chain 2 of 2, the tested form may be a part): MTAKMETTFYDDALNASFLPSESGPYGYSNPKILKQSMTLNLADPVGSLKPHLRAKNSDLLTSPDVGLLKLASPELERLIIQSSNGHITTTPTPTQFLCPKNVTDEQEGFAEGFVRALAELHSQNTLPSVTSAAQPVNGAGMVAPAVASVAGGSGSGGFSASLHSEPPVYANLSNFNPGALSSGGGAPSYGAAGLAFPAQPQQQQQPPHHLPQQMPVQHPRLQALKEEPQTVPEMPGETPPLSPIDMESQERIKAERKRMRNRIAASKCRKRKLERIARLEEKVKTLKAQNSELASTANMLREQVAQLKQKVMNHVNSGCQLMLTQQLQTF

Meis1;Pbx1 [4] = biological target: T2, Meis1;Pbx1; experiment: EMSA; binds at lower protein:DNA ratio than AP1; 15 uL reactions with 5% glycerol, 1 ug poly-dIdC, 1.3 uM ds oligo, 12 ug Meis1/Pbx1 or 7 ug Prep1/Pbx1; 30 min on ice; 5-15% native PAGE, GelRed stain; buffer; conditions: protein: recombinant;recombinant; tags: GST fusion from modified pGEX6p-2rbs; copies: 1;1; blunt
Meis1;Pbx1 [5] = biological target: T2, Meis1;Pbx1; experiment: EMSA; 15 uL reactions with 5% glycerol, 1 ug poly-dIdC, 1.3 uM ds oligo, 12 ug Meis1/Pbx1 or 7 ug Prep1/Pbx1; 30 min on ice; 5-15% native PAGE, GelRed stain; buffer; conditions: protein: recombinant;recombinant; tags: GST fusion from modified pGEX6p-2rbs; copies: 1;1; blunt

B1: AP1+DECA (dsDNA)
DNA 1: TAAAATGCTGAGTCACTGACTGACAGCTTTAGGCT
DNA 2: AGCCTAAAGCTGTCAGTCAGTGACTCAGCATTTTA
- binding result (Prep1 (pKnox1);Pbx1 [1]): binds

B2: DECA (dsDNA)
DNA 1: AGCTGACCTCTGAGTGACAGGGTGGAATGTGA
DNA 2: TCACATTCCACCCTGTCACTCAGAGGTCAGCT
- binding result (Prep1 (pKnox1);Pbx1 [1]): binds

B3: AP1 (dsDNA)
DNA 1: CATTACCATGAGTCATTGGGCTTGCTC
DNA 2: GAGCAAGCCCAATGACTCATGGTAATG
- binding result (Meis1;Pbx1 [2]): binds
- binding result (Prep1 (pKnox1);Pbx1 [3]): binds
- binding result (c-Fos;c-Jun): binds

B4: OCTA (dsDNA)
DNA 1: GAAAGTGATAAATAATACAAGGAAAGC
DNA 2: GCTTTCCTTGTATTATTTATCACTTTC
- binding result (Meis1;Pbx1 [4]): binds

B5: OCTA+AP1 (dsDNA)
DNA 1: ATTATAGTGATGAATCATCATGACTCATGGTCCAG
DNA 2: CTGGACCATGAGTCATGATGATTCATCACTATAAT
- binding result (Meis1;Pbx1 [5]): binds
